# Values quoted from earlier work, collected in PMC4184467.
# Test system: Lys64
# Conditions: wild-type enzyme, zinc-bound
substance,measurement,value
Carbonic anhydrase III (CA III) (Homo sapiens),pKa,9.0
